The text below walks through data of patent US20120316071A1 (published 2012).

The target of assay [1] is T1, rHuman ErbB2/Fc Chimera, CF (R&D Systems Cat#1129-ER) (human, UniProt P04626 23-652).
T1 construct: Bought recombinant protein; also called human epidermal growth factor 2 receptor
Description: ECL multispot (MSD) assay, antigen spotted on plate, Fab in solution; blank spot of this well 271.

Assay [2] addresses T2, rHuman Erythropoietin R/Fc Chimera, CF (R&D Systems Cat#963-ER) (human, UniProt P19235 25-250).
T2 construct: Bought recombinant protein; also called EPO R; EPO R/Fc
The assay is described as above.

Assay [3] addresses T3, rHuman EGF R/Fc Chimera, CF (R&D Systems Cat#344-ER) (human, UniProt P00533 25-645).
T3 construct: Bought recombinant protein; also called epidermal growth factor receptor
The description is as above.

In assay [4] the target is T4, rHuman IGF-1 sR (insulin-like growth factor-1 soluble receptor), CF (R&D Systems Cat#391-GR) (human, UniProt P08069 31-932).
T4 construct: Bought recombinant soluble receptor
The assay is described as above.

Assay [5] deals with T5, rHuman Notch-1/Fc Chimera, CF (R&D Systems Cat#3647-TK) (human).
T5 construct: Bought recombinant protein
Described as above.

The target of assay [6] is T6, Recombinant Human DLL4 (R&D Systems Cat#1506-D4/CF) (human, UniProt Q9NR61 27-524).
T6 construct: Bought recombinant protein; also called delta-like protein 4; rHuman DLL4
Described as above.

Assay [7] has as its target T7, rHuman CD44/Fc Chimera, CF (R&D Systems Cat#3660-CD) (human, UniProt P16070 21-220).
T7 construct: Bought recombinant protein
Described as above.

For assay [8], the target named is T8, rHuman P-Cadherin/Fc Chimera, CF (R&D Systems Cat#861-PC) (human, UniProt P22223 108-654).
T8 construct: Bought recombinant protein
The assay is described as above.

The target in assay [9] is T9, rHuman HGF R/c-MET/Fc Chimera, CF (R&D Systems Cat#358-MT/CF) (human, UniProt P08581 25-932).
T9 construct: Bought recombinant protein; also called HGF R/Fc; hepatocyte growth factor receptor
Described as above.

For assay [10], the target named is T1, rHuman ErbB2/Fc Chimera, CF (R&D …). Description: ECL multispot (MSD) assay, antigen spotted on plate, Fab in solution; blank spot of this well 204.
The target in assay [11] is T2, rHuman Erythropoietin R/Fc Chimera, CF …. The description is as above.
Assay [12] has as its target T3, rHuman EGF R/Fc Chimera, CF (R&D …). The assay is described as above.
In assay [13] the target is T4, rHuman IGF-1 sR (insulin-like growth …). Described as above.
Assay [14] deals with T5, rHuman Notch-1/Fc Chimera, CF (R&D …). The description is as above.
In assay [15] the target is T6, Recombinant Human DLL4 (R&D Systems …). The assay is described as above.
For assay [16], the target named is T7, rHuman CD44/Fc Chimera, CF (R&D Systems …). The description is as above.
Assay [17] concerns the target T8, rHuman P-Cadherin/Fc Chimera, CF (R&D …). The description is as above.
Assay [18] deals with T9, rHuman HGF R/c-MET/Fc Chimera, CF (R&D …). The description is as above.
For assay [19], the target named is T1, rHuman ErbB2/Fc Chimera, CF (R&D …). Description: ECL multispot (MSD) assay, antigen spotted on plate, Fab in solution; blank spot of this well 224.
For assay [20], the target named is T2, rHuman Erythropoietin R/Fc Chimera, CF …. The assay is described as above.
The target in assay [21] is T3, rHuman EGF R/Fc Chimera, CF (R&D …). Described as above.
Assay [22] concerns the target T4, rHuman IGF-1 sR (insulin-like growth …). The assay is described as above.
In assay [23] the target is T5, rHuman Notch-1/Fc Chimera, CF (R&D …). The assay is described as above.
Assay [24] addresses T6, Recombinant Human DLL4 (R&D Systems …). The description is as above.
For assay [25], the target named is T7, rHuman CD44/Fc Chimera, CF (R&D Systems …). The description is as above.
Assay [26] has as its target T8, rHuman P-Cadherin/Fc Chimera, CF (R&D …). Described as above.
The target in assay [27] is T9, rHuman HGF R/c-MET/Fc Chimera, CF (R&D …). The description is as above.
Assay [28] concerns the target rHuman CD44/Fc Chimera, CF (R&D Systems Cat#3660-CD) (human, UniProt P16070 21-220). Description: ECL multispot (MSD) assay, antigen spotted on plate, Fab in solution; blank spot of this well 270.
Assay [29] addresses rHuman Erythropoietin R/Fc Chimera, CF (R&D Systems Cat#963-ER) (human, UniProt P19235 25-250). Described as above.
Assay [30] deals with rHuman P-Cadherin/Fc Chimera, CF (R&D Systems Cat#861-PC) (human, UniProt P22223 108-654). The assay is described as above.
In assay [31] the target is T10, rHuman Notch-1/Fc Chimera, CF (R&D Systems Cat#3647-TK) (human).
T10 chain: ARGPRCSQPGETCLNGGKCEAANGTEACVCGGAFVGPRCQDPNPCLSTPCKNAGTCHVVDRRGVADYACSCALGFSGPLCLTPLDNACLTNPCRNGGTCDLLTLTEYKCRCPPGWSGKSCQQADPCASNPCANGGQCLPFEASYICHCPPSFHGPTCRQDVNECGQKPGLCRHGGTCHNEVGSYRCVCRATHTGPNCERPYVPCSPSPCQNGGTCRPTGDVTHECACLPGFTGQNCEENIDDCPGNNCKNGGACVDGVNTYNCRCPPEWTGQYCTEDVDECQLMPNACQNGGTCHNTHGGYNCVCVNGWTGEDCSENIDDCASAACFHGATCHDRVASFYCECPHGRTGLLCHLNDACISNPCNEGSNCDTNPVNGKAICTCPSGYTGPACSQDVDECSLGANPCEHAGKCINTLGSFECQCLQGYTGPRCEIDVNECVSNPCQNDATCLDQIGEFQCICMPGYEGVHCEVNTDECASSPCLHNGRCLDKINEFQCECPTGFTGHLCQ
The description is as above.

Assay [32] has as its target rHuman HGF R/c-MET/Fc Chimera, CF (R&D Systems Cat#358-MT/CF) (human, UniProt P08581 25-932). The assay is described as above.

B1: Fab VH1-46_IGHD6-6*01_IGHJ1*01 S102A/S103P/S104F (APF) & L6_IGKJ1*01 (Fab, V domains shown)
VH: QVQLVQSGAEVKKPGASVKVSCKASGYTFTSYYMHWVRQAPGQGLEWMGIINPSGGSTSYAQKFQGRVTMTRDTSTSTVYMELSSLRSEDTAVYYCAREEYAPFSAEYFQHWGQGTLVTVSS
VL: not shown
notes: Fab made in E. coli (heavy chain in plasmid A with CH1, His6 and Flag tags; kappa light chain in plasmid C); also called APF / parent; H:APF & L:wt
As for B1, the ECL signal stood at 330 in assay [1]; 304 in assay [2]; 272 in [3]; 241 in assay [4]; 257 in assay [5]; 3480 in assay [6]. The ECL signal in [7] is 189; in assay [8] it was 297; in [9], 306; in [10], 157; in assay [11], 329; in assay [12] it was 237. The ECL signal in assay [13] was found to be 197; in [14], 334; in assay [15] it was 2120; in assay [16] it was 96; in assay [17], 208; in assay [18] it was 272. The ECL signal amounted to 149 in [19]; 0 in [20]; 279 in assay [21]; 168 in assay [22]; 171 in assay [23]; 2830 in [24]. Further, the ECL signal worked out at 197 in [25], 171 in assay [26] and 275 in assay [27].

B2: Fab VH1-46_IGHD6-6*01_IGHJ1*01 S102A/S103P/S104F/H111F (APFF) & L6_IGKJ1*01 N93Y (Fab, V domains shown)
VH: QVQLVQSGAEVKKPGASVKVSCKASGYTFTSYYMHWVRQAPGQGLEWMGIINPSGGSTSYAQKFQGRVTMTRDTSTSTVYMELSSLRSEDTAVYYCAREEYAPFSAEYFQFWGQGTLVTVSS
VL: EIVLTQSPATLSLSPGERATLSCRASQSVSSYLAWYQQKPGQAPRLLIYDASNRATGIPARFSGSGSGTDFTLTISSLEPEDFAVYYCQQRSYWPPWTFGQGTKVEIKR
notes: Fab made in E. coli (heavy chain in plasmid A with CH1, His6 and Flag tags; kappa light chain in plasmid C); also called APFF / N93Y
Turning to B2, the ECL signal in [28] is 333; in [29], 541; in [30] it was 499; in assay [31], 453; in assay [32] it was 380.
